Source: patent US20200010554A1 (TUSK THERAPEUTICS, published 2020)
One block for each molecule: values may come before it.

Assays:
[1] = target: recombinant mouse IL-2 (mouse) (UniProt P04351); test: cell-based or functional assay
[2] = target: T1, recombinant mouse CD25 his tagged (mouse, UniProt P01590 22-236, limits assumed); test: SPR Biacore 2000, antibody captured by anti-mouse antibody on CM-5 chip, recombinant mouse CD25 his tagged as analyte, bivalent analyte model
T1 construct: also called rmCD25 his tagged; mCD25; not shown: his tag
T1 sequence (looked up): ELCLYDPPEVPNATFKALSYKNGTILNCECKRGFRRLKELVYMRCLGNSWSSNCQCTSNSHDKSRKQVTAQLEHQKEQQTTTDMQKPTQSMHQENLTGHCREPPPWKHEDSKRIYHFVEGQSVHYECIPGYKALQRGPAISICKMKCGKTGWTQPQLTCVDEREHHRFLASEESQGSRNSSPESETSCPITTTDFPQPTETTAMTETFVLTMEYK

recombinant mouse CD25 [3] = target: T2, recombinant mouse CD25 (mouse, UniProt P01590 22-236, biotinylated in FIG. 1A (site not stated)); test: BLI tandem cross-blocking: biotinylated mouse CD25 on SA sensor, 100 nM mouse IL-2, then antibody at 150 s
T2 construct: also called biotinylated mouse CD25
T2 sequence (looked up): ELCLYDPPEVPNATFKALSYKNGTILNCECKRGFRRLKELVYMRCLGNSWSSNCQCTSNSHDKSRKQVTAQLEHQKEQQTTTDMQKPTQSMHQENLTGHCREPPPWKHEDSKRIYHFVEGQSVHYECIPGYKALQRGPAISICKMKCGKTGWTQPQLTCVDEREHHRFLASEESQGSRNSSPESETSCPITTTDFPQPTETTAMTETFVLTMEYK

[4] = target: T3, human CD25 expressed on cells (Karpas 299, SU-DHL-1, SR-786, in vitro differentiated Treg cells, PBMC) (human, UniProt P01589 22-272); test: flow cytometry titration on Karpas 299 cells, AF647 secondary antibody
T3 construct: also called CD25 expressing cells
T3 sequence: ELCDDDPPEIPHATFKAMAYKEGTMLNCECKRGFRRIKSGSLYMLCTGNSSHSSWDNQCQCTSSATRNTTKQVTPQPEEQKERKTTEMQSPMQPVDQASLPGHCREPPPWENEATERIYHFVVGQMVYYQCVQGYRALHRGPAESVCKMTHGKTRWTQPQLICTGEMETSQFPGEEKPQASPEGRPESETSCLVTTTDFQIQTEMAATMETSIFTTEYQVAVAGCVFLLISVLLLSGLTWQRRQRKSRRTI

[5] = target: T3, human CD25 expressed on cells (Karpas …); test: as above; remark: listed apart in the source
[6] = target: T3, human CD25 expressed on cells (Karpas …); test: as above; remark: listed apart in the source
[7] = target: T3, human CD25 expressed on cells (Karpas …); test: as above; remark: listed apart in the source
[8] = target: T3, human CD25 expressed on cells (Karpas …); test: flow cytometry titration on Karpas 299 cells, AF647 secondary antibody [Figure 68 continued]
[9] = target: T3, human CD25 expressed on cells (Karpas …); test: as above; remark: listed apart in the source
[10] = target: T3, human CD25 expressed on cells (Karpas …); test: as above; remark: listed apart in the source
[11] = target: T3, human CD25 expressed on cells (Karpas …); test: as above; remark: listed apart in the source
recombinant mouse CD25 [12] = target: T2, recombinant mouse CD25; test: BLI Octet RED384, IgG on AHQ sensors, 100 nM antigen, 1:1 model

frequency of CD4 T cells both proliferating and producing Granzyme B after anti-CD3/anti-CD28 stimulation [1]: < 1%
Molecule: neutralizing anti-mouse IL-2 antibody, clone Jes6-1A12

binding result (recombinant mouse CD25 [3]): binds
B2: recombinant mouse IL-2 (ligand, UniProt P04351 21-169, looked up)
chain: APTSSSTSSSTAEAQQQQQQQQQQQQHLEQLLMDLQELLSRMENYRNLKLPRMLTFKFYLPKQATELKDLQCLEDELGPLRHVLDLTQSKSFQLEDAENFISNIRVTVVKLKGSDNTFECQFDDESATVVDFLRRWIAFCQSIISTSPQ

EC50 (read off the curve) [5]: ~0.3 µg/mL
B4: Antibody 15 (antibody, V domains shown)
VH: QVQLQESGPGLVKPSETLSLTCTVSGFSLTSYGIQWVRQPPGKGLEWIGVIWAGGSTNYNSALMSRVTISKDNSKSQFSLKLSSVTAADTAVYYCARAYGYDGSWLAYWGQGTLVTVSS
VL: QIVLTQSPATLSLSPGERATLSCRASSSVSYMHWYQQKPGQAPRPLIFATSNLASGIPARFSGSGSGTDYTLTISSLEPEDFAVYYCQQWSSNPPTFGGGTKLEIK
notes: also called Ab15

EC50 (read off the curve) [8]: ~0.2 µg/mL
B7: Antibody 17 (antibody, V domains shown)
VH: QVQLQESGPGLVKPSETLSLTCTVSGFSLTSYGIQWVRQPPGKGLEWIGVIWAGGSTNYNSALMSRVTISKDNSKSQFSLKLSSVTAADTAVYYCARAYGYDGSWLAYWGQGTLVTVSS
VL: QIQLTQSPSSLSASVGDRVTITCRASSSVSYMHWYQQKPGKSPKPLIFATSNLASGVPSRFSGSGSGTDYTLTISSLQPEDFATYYCQQWSSNPPTFGGGTKLEIK
notes: also called Ab17

EC50 (read off the curve) [9]: ~0.2 µg/mL
B8: Antibody 16 (antibody, V domains shown)
VH: QVQLQESGPGLVKPSETLSLTCTVSGFSLTSYGIQWVRQPPGKGLEWIGVIWAGGSTNYNSALMSRVTISKDNSKSQFSLKLSSVTAADTAVYYCARAYGYDGSWLAYWGQGTLVTVSS
VL: DIQMTQSPSSLSASVGDRVTITCRASSSVSYMHWYQQKPGKAPKPLIFATSNLASGVPSRFSGSGSGTDYTLTISSLQPEDFATYYCQQWSSNPPTFGGGTKLEIK
notes: also called Ab16

EC50 (read off the curve) [11]: ~0.3 µg/mL
B10: Antibody 19 (antibody, V domains shown)
VH: QVQLVESGGGVVQPGGSLRLSCAVSGFSLTSYGIQWVRQAPGKGLEWVSVIWAGGSTNYNSALMSRFTISKDNSKSTLYLQMNSLRAEDTAVYYCARAYGYDGSWLAYWGQGTLVTVSS
VL: QIVLTQSPATLSLSPGERATLSCRASSSVSYMHWYQQKPGQAPRPLIFATSNLASGIPARFSGSGSGTDYTLTISSLEPEDFAVYYCQQWSSNPPTFGGGTKLEIK
notes: also called Ab19; Antibodyl9

More lines, now with the values behind:

B1: 2E4, anti-mouse CD25 antibody from the 2E4 hybridoma (antibody, V domains shown)
VH: EVQLVESGGGLVQPGRSLKLSCAASGFTFSDYGMAWVRQAPTKGLEWVASITNGGLNTYYRDSVKGRFTISRDNAKCTLYLQMDSLRSEDTATYYCATGGFSFWGQGTLVTVSS
VL: DIVMTQSPTSMSISVGDRVTMNCKASQNVDSNVDWYQQKTGQSPKLLIYKASNRYTGVPDRFTGSGSGTDFTFTIRNMQAEDLAVYYCMQSNSYPLTFGSGTKLEIK
notes: also called 2E4 (mlg1)
Kd [2]: 114 nM

B3: Antibody 12 (antibody, V domains shown)
VH: QVQLQESGPGLVKPSETLSLTCTVSGFSLTSYGIQWIRQPPGKGLEWIGVIWAGGSTNYNSALMSRVTISKDNSKNQFSLKLSSVTAADTAVYYCARAYGYDGSWLAYWGQGTLVTVSS
VL: DIQMTQSPSSLSASVGDRVTITCRASSSVSYMHWYQQKPGKAPKPLIFATSNLASGVPSRFSGSGSGTDYTLTISSLQPEDFATYYCQQWSSNPPTFGGGTKLEIK
notes: also called Ab12
EC50 (read off the curve) [4]: ~0.3 µg/mL

B5: Antibody 13 (antibody, V domains shown)
VH: QVQLQESGPGLVKPSETLSLTCTVSGFSLTSYGIQWIRQPPGKGLEWIGVIWAGGSTNYNSALMSRVTISKDNSKNQFSLKLSSVTAADTAVYYCARAYGYDGSWLAYWGQGTLVTVSS
VL: QIQLTQSPSSLSASVGDRVTITCRASSSVSYMHWYQQKPGKSPKPLIFATSNLASGVPSRFSGSGSGTDYTLTISSLQPEDFATYYCQQWSSNPPTFGGGTKLEIK
notes: also called Ab13
EC50 (read off the curve) [6]: ~0.2 µg/mL

B6: Antibody 14 (antibody, V domains shown)
VH: QVQLQESGPGLVKPSETLSLTCTVSGFSLTSYGIQWVRQPPGKGLEWIGVIWAGGSTNYNSALMSRVTISKDNSKSQFSLKLSSVTAADTAVYYCARAYGYDGSWLAYWGQGTLVTVSS
VL: EIVLTQSPATLSLSPGERATLSCRASSSVSYMHWYQQKPGQAPRPLIFATSNLASGIPARFSGSGSGTDFTLTISSLEPEDFAVYYCQQWSSNPPTFGGGTKLEIK
notes: also called AB14
EC50 (read off the curve) [7]: ~0.3 µg/mL

B9: Antibody 18 (antibody, V domains shown)
VH: QVQLVESGGGVVQPGGSLRLSCAVSGFSLTSYGIQWVRQAPGKGLEWVSVIWAGGSTNYNSALMSRFTISKDNSKSTLYLQMNSLRAEDTAVYYCARAYGYDGSWLAYWGQGTLVTVSS
VL: EIVLTQSPATLSLSPGERATLSCRASSSVSYMHWYQQKPGQAPRPLIFATSNLASGIPARFSGSGSGTDFTLTISSLEPEDFAVYYCQQWSSNPPTFGGGTKLEIK
notes: also called Ab18
EC50 (read off the curve) [10]: ~0.3 µg/mL

B11: 7D4(mIgG2a), recombinant anti-mouse CD25 antibody with mouse IgG2a and kappa constant regions (antibody)
heavy: EVQLQQSGAALVKPGASVKMSCKASGYSFPDSWVTWVKQSHGKSLEWIGDIFPNSGATNFNEKFKGKATLTVDKSTSTAYMELSRLTSEDSAIYYCTRLDYGYWGQGVMVTVSSAKTTAPSVYPLAPVCGDTTGSSVTLGCLVKGYFPEPVTLTWNSGSLSSGVHTFPAVLQSDLYTLSSSVTVTSSTWPSQSITCNVAHPASSTKVDKKIEPRGPTIKPCPPCKCPAPNLLGGPSVFIFPPKIKDVLMISLSPIVTCVVVDVSEDDPDVQISWFVNNVEVHTAQTQTHREDYNSTLRVVSALPIQHQDWMSGKEFKCKVNNKDLPAPIERTISKPKGSVRAPQVYVLPPPEEEMTKKQVTLTCMVTDFMPEDIYVEWTNNGKTELNYKNTEPVLDSDGSYFMYSKLRVEKKNWVERNSYSCSVVHEGLHNHHTTKSFSRTPGK
light: DVVLTQTPPTLSATIGQSVSISCRSSQSLLHSNGNTYLNWLLQRPGQPPQLLIYLASRLESGVPNRFSGSGSGTDFTLKISGVEAEDLGVYYCVQSSHFPNTFGVGTKLEIKRADAAPTVSIFPPSSEQLTSGGASVVCFLNNFYPKDINVKWKIDGSERQNGVLNSWTDQDSKDSTYSMSSTLTLTKDEYERHNSYTCEATHKTSTSPIVKSFNRNEC
notes: also called 7D4m2a; a7D4 mIgG2a
Kd [2]: 2.6 nM
Kd (recombinant mouse CD25 [12]): ~1 nM

B12: 7D4(mIgG1), recombinant anti-mouse CD25 antibody with murine IgG1 and kappa constant regions (antibody)
heavy: EVQLQQSGAALVKPGASVKMSCKASGYSFPDSWVTWVKQSHGKSLEWIGDIFPNSGATNFNEKFKGKATLTVDKSTSTAYMELSRLTSEDSAIYYCTRLDYGYWGQGVMVTVSSAKTTPPSVYPLAPGSAAQTNSMVTLGCLVKGYFPEPVTVTWNSGSLSSGVHTFPAVLQSDLYTLSSSVTVPSSTWPSQTVTCNVAHPASSTKVDKKIVPRDCGCKPCICTVPEVSSVFIFPPKPKDVLMISLTPKVTCVVVDISKDDPEVQFSWFVDDVEVHTAQTKPREEQINSTERSVSELPILHQDWLNGKEFKCRVNSAAFPAPIEKTISKTKGRPKAPQVYTIPPPKEQMAKDKVSLTCMITNEFPEDITVEWQWNGQPAENYKNTQPIMDTDGSYFVYSKLNVQKSNWEAGNTFTCSVLHEGLHNHHTEKSLSHSPGK
light: DVVLTQTPPTLSATIGQSVSISCRSSQSLLHSNGNTYLNWLLQRPGQPPQLLIYLASRLESGVPNRFSGSGSGTDFTLKISGVEAEDLGVYYCVQSSHFPNTFGVGTKLEIKRADAAPTVSIFPPSSEQLTSGGASVVCFLNNFYPKDINVKWKIDGSERQNGVLNSWTDQDSKDSTYSMSSTLTLTKDEYERHNSYTCEATHKTSTSPIVKSFNRNEC
notes: also called a7D4(mIgG1); 7D4 (mlg1)
Kd (recombinant mouse CD25 [12]): ~1 nM
